Holding throughout (experiment): steady-state kinetics, HPLC-MS of glycoside product
What all share (format): biochemical, Solanum lycopersicum

Substrate in data set [1]: O=c1ccn([C@@H]2O[C@H](COP(=O)(O)OP(=O)(O)O[C@H]3OC[C@H](O)[C@H](O)[C@H]3O)[C@@H](O)[C@H]2O)c(=O)[nH]1
The following applies: HexGlc fixed as acceptor, 50 mM potassium phosphate pH 7.5, 30 °C. The text has this: (§1) steady-state kinetics, HPLC-MS of glycoside product on UGT91R1

Substrate in data set [2]: O=c1ccn([C@@H]2O[C@H](COP(=O)(O)OP(=O)(O)O[C@H]3OC[C@@H](O)[C@H](O)[C@H]3O)[C@@H](O)[C@H]2O)c(=O)[nH]1
The following applies: HexGlc fixed as acceptor, 50 mM potassium phosphate pH 7.5, 30 °C.
From the text: as §1

Substrate in data set [3]: CC/C=C\CCO[C@@H]1O[C@H](CO)[C@@H](O)[C@H](O)[C@H]1O
The following applies: UDP-arabinose fixed as donor, 50 mM potassium phosphate pH 7.5, 30 °C.
From the text: as §1

The record followed here is publication PMC9908901, “Identification of a tomato UDP-arabinosyltransferase for airborne volatile reception” (Nature Communications, 2023).

B1: UGT91R1 (Solanum lycopersicum) (protein)
chain: MAENGKKLHIAVFPWLAFGHMIPYLELSKLIAQKGHKISFISTPRNIDRLPKLPPNLTPFLNFVKLPMPHVEKLPENAEATIDLPYEQVKYLKLAQDALQESMSKFIEDSDIDFILFDFTSYWVPSIASKFNIPSGYFSIFIAAFLGFTGPVPGLNNDYEIRMTPEEYTVTPKWVPFETTVAFKLFEVSRIFEASMKGEEENIADIVRYYRSVENCDFLLVRSCSEFEPEWLKVVGDIHRKPVFPVGQLPTTPYEDDSTKIDAWREIKLWLDKQEKGKVIYVAFGSEAKPSQNELTELSLGLELSGLPFFWVLRIKRGESDDELIQLPEGFEERTKGRGIVCTSWAPQLKILSHDSVGGFLTHSGWSSVVEAIQFEKSLVLLTFLADQGINARLLEEKKMAYSIPRNDQDGSFTRDSVAESLNLVLVKEEGFIYREKIKEMKDLFCDKKRQNNYVENLLSFLQDYEKIKA
notes: full length, synthetic cDNA in pET15b, E. coli BL21(DE3), HisTrap purified
As for B1, the Michaelis constant (Km) was 38 ± 4 µM in data set [1], 603 ± 75 µM in data set [2] and 5.9 ± 0.5 µM in data set [3]. The kcat came to 1.9 ± 0.1 s⁻¹ in data set [1], 1.8 ± 0.1 s⁻¹ in data set [2] and 0.33 ± 0.009 s⁻¹ in data set [3]. The kcat/Km in data set [1] worked out at 51000 ± 5000 M⁻¹ s⁻¹; in data set [2], 3000 ± 400 M⁻¹ s⁻¹; in data set [3] it was 57000 ± 5000 M⁻¹ s⁻¹.
